Source: patent publication US20220387555A1 (LUDWIG INSTITUTE FOR CANCER RESEARCH, published 2022)
Positions count from the first letter of the chain named.

B1: PD1_4XMUT_M70 (with 6xHis) (receptor)
chain: MASDSPDRPWNPPTFSPALLVVTEGDNATFTCSFSNTSESFVLNWYRMSPSNQDDRLAAFPEDRSQPGQDARFRVTQLPNGRDFHMSVVRARRNDSGTYFCGAISLAPKAKIKESLRAELRVTERRALEHHHHHH
notes: also called soluble monomeric PD1 decoy variant
B2: PD1_6XDM (with 6xHis) (receptor)
chain: B1 chain with D54V, A110W
notes: also called PD-1 decoy variant 6XDM; soluble monomeric PD1 decoy variant

Molecular target: T1, human PDL1 protein (human, UniProt Q9NZQ7 19-238, limits assumed)
T1 construct: Plate-coated protein
Assay: titration ELISA, plates coated with human PD-L1, soluble monomeric decoy, anti-His tag detection

T1 sequence (Q9NZQ7 19-238 limits assumed): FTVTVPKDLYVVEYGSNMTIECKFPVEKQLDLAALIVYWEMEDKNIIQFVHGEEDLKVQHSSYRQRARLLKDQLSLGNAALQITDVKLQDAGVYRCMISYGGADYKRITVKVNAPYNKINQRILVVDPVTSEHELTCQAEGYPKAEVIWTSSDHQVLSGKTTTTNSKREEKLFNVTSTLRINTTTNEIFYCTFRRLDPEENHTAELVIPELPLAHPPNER

Binder	fold better binding than the WT PD1 decoy [fold]
B1	10
B2	~7.5
